From patent EP4722231A1 (Shanxi Jinbo Bio-Pharmaceutical Co., Ltd., dated 2025) come the findings set out here.

What all share (assay): cell-based or functional assay
The target of test [1] is SARS-CoV-2 BA.2.86 S protein (SARS-CoV-2 (BA.2.86 variant)).
For test [2], the target named is SARS-CoV-2 BA.2.75 S protein (SARS-CoV-2 (BA.2.75 variant)).
Test [3] concerns the target SARS-CoV-2 XBB.1.5 S protein (SARS-CoV-2 (XBB.1.5 variant)).
In test [4] the target is SARS-CoV-2 EG.5 S protein (SARS-CoV-2 (EG.5 variant)).
Test [5] deals with SARS-CoV-2 Omicron BA.2 S protein (SARS-CoV-2 (BA.2 variant)).

As to SLDQINVTFLDLEYEMKKLEEAIKKLEESYIDLKEL [prokaryote-expressed polypeptide reEK1 (recombinant polypeptide HCoV-EK1, TEKB)], the “Inhibitory activity, IC50 (nM), pseudovirus infection of Caco2 cells (luciferase)” value in test [1] was 298 nM; in test [2] it was 420 nM; in test [3], 137 nM; in test [4], 331 nM; in test [5], 354 nM.

For Ac-SLDQINVTFLDLEYEMKKLEEAIKKLEESYIDLKEL-NH2 [chemically synthesized polypeptide EK1], the “Inhibitory activity, IC50 (nM), pseudovirus infection of Caco2 cells (luciferase)” value was 392 nM in test [1]; 438 nM in test [2]; 291 nM in test [3]; 401 nM in test [4]; 228 nM in test [5].
